Assay results as given in PMC12078605.
Several values for one entry are separate records, joined by “and”; a condition that tells them apart may be missing. Identical values can stand only once.

Target: Shiga toxin 2a B-subunit (StxB2a) (E. coli (endogenous in STEC/EHEC strains TS18/08, LB226692, HUSEC003, HUSEC004, HUSEC008, HUSEC018))
Experiment: native gel or EMSA

Substance: Shiga toxin 2a B-subunit (StxB2a) (natural protein)
- stoichiometry N: 2 and 3 and 5
